Data on eleven molecules can be found in article PMC12269497, “Dimerization of the BAR domain–containing protein FAM92A modulates lipid binding and interaction with CBY1” (The Journal of Biological Chemistry, 2025).

Data set [1] deals with mouse FAM92A BAR domain Mu4 (K169, K183, K194 to glutamic acid) (mouse). Kind of data set: SEC-MALS; typically 200 μl at 70 μM injected; Superose 12 10/300 GL; 50 mM Tris pH 7.5, 1 mM DTT, 1 mM EDTA, 100 mM NaCl. For orientation: In gel filtration, larger molecules generally elute earlier.
The target in data set [2] is mouse FAM92A BAR domain Mu3 (R108, K109, R112, R114, K116 to glutamic acid) (mouse). The description is as above.
The target of data set [3] is mouse FAM92A BAR domain Mu1 (K176, K178, R179 to glutamic acid) (mouse). The data set is described as above.
In data set [4] the target is Trx-Strep-tagged mouse FAM92A BAR domain (amino acids 70-283) (mouse). Kind of data set: BLI; Trx-Strep-tagged FAM92A BAR (1 μM) loaded on Strep-Tactin XT probes, His-tagged CBY1 variants in solution; PBS with 0.02% Tween-20 and 0.2% BSA; 1:1 binding model. In general terms: BLI is a label-free optical method that tracks binding on a fibre tip over time.
The target in data set [5] is mouse FAM92A BAR domain (amino acids 70-283), untagged (mouse). Briefly: ITC; CBY1 variants (200–300 μM) in the syringe, FAM92A BAR or its dimerization mutants (100–120 μM) in the cell; 25 °C; 50 mM Tris pH 7.5, 1 mM DTT, 1 mM EDTA, 100 mM NaCl; one-site binding model. For orientation: Isothermal titration calorimetry measures the heat released or taken up as one component is titrated into another.

Data set [6] concerns the target mouse FAM92A BAR domain Mu2 (R201, R203, R205 to glutamic acid) (mouse). Briefly: SEC-MALS; typically 200 μl at 70 μM injected; Superose 12 10/300 GL; 50 mM Tris pH 7.5, 1 mM DTT, 1 mM EDTA, 100 mM NaCl.
The target of data set [7] is mouse FAM92A BAR domain Mu5 (R72, K83, K94 to glutamic acid) (mouse). The description is as above.
In data set [8] the target is Trx-tagged full-length mouse FAM92A (mouse). The description is as above.
Data set [9] deals with mouse FAM92A BAR domain (amino acids 70-283), untagged (mouse). The description is as above.
Data set [10] deals with the molecule itself. The description is as above.
Data set [11] concerns the target T1, Trx-Strep-tagged mouse FAM92A BAR domain (amino acids 70-283) (mouse).
T1 chain: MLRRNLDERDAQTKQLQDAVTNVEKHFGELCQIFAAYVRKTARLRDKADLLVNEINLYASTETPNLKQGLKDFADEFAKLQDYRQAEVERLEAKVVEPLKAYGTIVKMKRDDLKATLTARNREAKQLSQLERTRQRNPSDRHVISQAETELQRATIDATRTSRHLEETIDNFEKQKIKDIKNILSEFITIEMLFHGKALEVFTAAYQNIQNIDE
Kind of data set: BLI.

A word on the stoichiometry N: it is a count of units in the complex or per binding partner. A word on the Kd: it is the equilibrium constant for the complex coming apart. A lower Kd goes with a tighter complex.

Molecule “mouse FAM92A BAR domain Mu4 (K169, K183, K194 to glutamic acid) (domain or fragment)” had a stoichiometry N in data set [1] of 2.

As to “mouse FAM92A BAR domain Mu3 (R108, K109, R112, R114, K116 to glutamic acid) (domain or fragment)”, the stoichiometry N in [2] is 2.

Regarding “mouse FAM92A BAR domain Mu1 (K176, K178, R179 to glutamic acid) (domain or fragment)”, in data set [3], the stoichiometry N came out at 2.

Regarding “MBP-His-tagged mouse CBY1 4E (L77E, L84E, L91E, L98E) (from UniProt Q9D1C2 1-127) (natural protein)”, the dissociation constant (Kd) in data set [4] was found to be 5.6 µM; in data set [5], 2.8 µM.

“mouse FAM92A BAR domain Mu2 (R201, R203, R205 to glutamic acid) (domain or fragment)”: the stoichiometry N in data set [6] was determined as 2.

As for “mouse FAM92A BAR domain Mu5 (R72, K83, K94 to glutamic acid) (domain or fragment)”, the stoichiometry N in [7] was 2.

In [8], “Trx-tagged full-length mouse FAM92A (natural protein)” came in with a stoichiometry N of 2.

Consider “mouse FAM92A BAR domain (amino acids 70-283), untagged (domain or fragment)”, for which the stoichiometry N in data set [9] is 2.

B1: Trx-tagged mouse CBY1 coiled-coil domain (amino acids 61-127) (domain or fragment, UniProt Q9D1C2 61-127, looked up)
chain: ADSVISGGVDRRETQRLRKRNQQLEEENNLLRLKVDILLDMLSETTAESHLKDKELDELKVTNRRRK
notes: mouse CBY1, GenBank NP_082910.1, amino acids 61-127 (C-terminal coiled-coil domain); also called CBY1 CC; source: E. coli BL21 (DE3), purified; not shown: Trx, N-terminal, kept
Turning to B1, the “stoichiometry N” value in data set [10] was found to be 2.

B2: Trx-His-tagged mouse CBY1 N-terminal region (amino acids 1-70) (domain or fragment)
chain: MPLFGSIFSPKKTPPRKSASLSNLHSLDRSTRELELGLDYGTPTMNLAGQSLKFENGQWVADSVISGGVD
On to B2, for which the Kd was found to be 10.8 µM in data set [11], 10 µM in [4] and 3.6 µM in data set [5].

B3: MBP-His-tagged full-length mouse Chibby1 (CBY1) (natural protein, UniProt Q9D1C2 1-127, looked up)
chain: MPLFGSIFSPKKTPPRKSASLSNLHSLDRSTRELELGLDYGTPTMNLAGQSLKFENGQWVADSVISGGVDRRETQRLRKRNQQLEEENNLLRLKVDILLDMLSETTAESHLKDKELDELKVTNRRRK
notes: mouse CBY1, GenBank NP_082910.1, amino acids 1-127; also called CBY1 FL; CBY1-FL; source: E. coli BL21 (DE3), purified (Ni-NTA, SEC); not shown: MBP, N-terminal, kept; His6, N-terminal, kept
On to B3, for which the “stoichiometry N” value in data set [10] was 2. In addition, the dissociation constant Kd turned out to be 0.25 µM in data set [4] and 0.15 µM in data set [5].
